Reference: IntAct's records for PubMed 26068854

B1: Kinetochore protein NDC80 homolog (Homo sapiens), O14777 (parent)
chain: MKRSSVSSGGAGRLSMQELRSQDVNKQGLYTPQTKEKPTFGKLSINKPTSERKVSLFGKRTSGHGSRNSQLGIFSSSEKIKDPRPLNDKAFIQQCIRQLCEFLTENGYAHNVSMKSLQAPSVKDFLKIFTFLYGFLCPSYELPDTKFEEEVPRIFKDLGYPFALSKSSMYTVGAPHTWPHIVAALVWLIDCIKIHTAMKESSPLFDDGQPWGEETEDGIMHNKLFLDYTIKCYESFMSGADSFDEMNAELQSKLKDLFNVDAFKLESLEAKNRALNEQIARLEQEREKEPNRLESLRKLKASLQGDVQKYQAYMSNLESHSAILDQKLNGLNEEIARVELECETIKQENTRLQNIIDNQKYSVADIERINHERNELQQTINKLTKDLEAEQQKLWNEELKYARGKEAIETQLAEYHKLARKLKLIPKGAENSKGYDFEIKFNPEAGANCLVKYRAQVYVPLKELLNETEEEINKALNKKMGLEDTLEQLNAMITESKRSVRTLKEEVQKLDDLYQQKIKEAEEEDEKCASELESLEKHKHLLESTVNQGLSEAMNELDAVQREYQLVVQTTTEERRKVGNNLQRLLEMVATHVGSVEKHLEEQIAKVDREYEECMSEDLSENIKEIRDKYEKKATLIKSSEE
partner: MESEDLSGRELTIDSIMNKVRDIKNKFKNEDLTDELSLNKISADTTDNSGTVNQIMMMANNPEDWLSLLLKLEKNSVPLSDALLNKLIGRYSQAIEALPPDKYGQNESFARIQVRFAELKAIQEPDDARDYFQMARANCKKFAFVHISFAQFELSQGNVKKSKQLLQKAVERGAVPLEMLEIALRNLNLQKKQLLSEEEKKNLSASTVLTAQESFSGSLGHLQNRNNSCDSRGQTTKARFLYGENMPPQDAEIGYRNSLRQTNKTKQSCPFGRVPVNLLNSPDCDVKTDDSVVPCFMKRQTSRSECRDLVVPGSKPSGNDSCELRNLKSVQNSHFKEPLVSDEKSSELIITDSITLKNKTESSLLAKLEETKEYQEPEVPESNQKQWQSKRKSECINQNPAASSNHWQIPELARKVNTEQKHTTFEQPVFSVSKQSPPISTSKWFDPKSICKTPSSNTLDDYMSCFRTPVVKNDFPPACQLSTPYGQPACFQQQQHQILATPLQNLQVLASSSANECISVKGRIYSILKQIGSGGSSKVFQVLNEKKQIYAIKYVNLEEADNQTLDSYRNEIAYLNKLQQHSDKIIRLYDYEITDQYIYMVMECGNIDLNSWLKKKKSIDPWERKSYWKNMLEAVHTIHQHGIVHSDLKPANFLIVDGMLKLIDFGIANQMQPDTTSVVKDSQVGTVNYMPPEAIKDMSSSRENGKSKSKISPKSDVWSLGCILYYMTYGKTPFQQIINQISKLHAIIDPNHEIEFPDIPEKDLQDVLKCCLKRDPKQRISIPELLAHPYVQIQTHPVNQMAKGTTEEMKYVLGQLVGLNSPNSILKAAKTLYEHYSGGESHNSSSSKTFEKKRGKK
B2: Kinetochore protein Nuf2 (Homo sapiens), Q9BZD4 (parent)
chain: METLSFPRYNVAEIVIHIRNKILTGADGKNLTKNDLYPNPKPEVLHMIYMRALQIVYGIRLEHFYMMPVNSEVMYPHLMEGFLPFSNLVTHLDSFLPICRVNDFETADILCPKAKRTSRFLSGIINFIHFREACRETYMEFLWQYKSSADKMQQLNAAHQEALMKLERLDSVPVEEQEEFKQLSDGIQELQQSLNQDFHQKTIVLQEGNSQKKSNISEKTKRLNELKLSVVSLKEIQESLKTKIVDSPEKLKNYKEKMKDTVQKLKNARQEVVEKYEIYGDSVDCLPSCQLEVQLYQKKIQDLSDNREKLASILKESLNLEDQIESDESELKKLKTEENSFKRLMIVKKEKLATAQFKINKKHEDVKQYKRTVIEDCNKVQEKRGAVYERVTTINQEIQKIKLGIQQLKDAAEREKLKSQEIFLNLKTALEKYHDGIEKAAEDSYAKIDEKTAELKRKMFKMST
partner: B1 partner

Variants of: B1
Conditions: with TTK

| effect of a mutation on the interaction | Variant |
| --- | --- |
| decreasing interaction strength | K166E |
| decreasing interaction strength | K89E |
| decreasing interaction strength | K89E;K166E |

Variants of: B2
Conditions: with TTK

| effect of a mutation on the interaction | Variant |
| --- | --- |
| decreasing interaction strength | METLSFPRYNVAEIVIHIRNKILTGADGKNLTKNDLYPNPKPEVLHMIYMRALQIVYGIRLEHFYMMPVNSEVMYPHLMEGFLPFSNLVTHLDSFLPICRVNDFETADILCPKAKRTSRFLSGIINFIAFREACRETYMEFLWQYKSSADKMQQLNAAHQEALMKLERLDSVPVEEQEEFKQLSDGIQELQQSLNQDFHQKTIVLQEGNSQKKSNISEKTKRLNELKLSVVSLKEIQESLKTKIVDSPEKLKNYKEKMKDTVQKLKNARQEVVEKYEIYGDSVDCLPSCQLEVQLYQKKIQDLSDNREKLASILKESLNLEDQIESDESELKKLKTEENSFKRLMIVKKEKLATAQFKINKKHEDVKQYKRTVIEDCNKVQEKRGAVYERVTTINQEIQKIKLGIQQLKDAAEREKLKSQEIFLNLKTALEKYHDGIEKAAEDSYAKIDEKTAELKRKMFKMST [H129A] |
| disrupting interaction strength | METLSAARYNVAEIVIHIRNKILTGADGKNLTKNDLYPNPKPEVLHMIYMRALQIVYGIRLEHFYMMPVNSEVMYPHLMEGFLPFSNLVTHLDSFLPICRVNDFETADILCPKAKRTSRFLSGIINFIHFREACRETYMEFLWQYKSSADKMQQLNAAHQEALMKLERLDSVPVEEQEEFKQLSDGIQELQQSLNQDFHQKTIVLQEGNSQKKSNISEKTKRLNELKLSVVSLKEIQESLKTKIVDSPEKLKNYKEKMKDTVQKLKNARQEVVEKYEIYGDSVDCLPSCQLEVQLYQKKIQDLSDNREKLASILKESLNLEDQIESDESELKKLKTEENSFKRLMIVKKEKLATAQFKINKKHEDVKQYKRTVIEDCNKVQEKRGAVYERVTTINQEIQKIKLGIQQLKDAAEREKLKSQEIFLNLKTALEKYHDGIEKAAEDSYAKIDEKTAELKRKMFKMST [F6A;P7A] |
| decreasing interaction strength | METLSFPRYNVAEIVIHIRNKILTGADGKNLTKNDLYPNPKPEVLHMIYMRALQIVYGIRLEHFYMMPVNSEVMYPHLMEGFLPFSNLVTHLDSFLPICRVNDFETADILCPKAERTSRFLSGIINFIHFREACRETYMEFLWQYKSSADKMQQLNAAHQEALMKLERLDSVPVEEQEEFKQLSDGIQELQQSLNQDFHQKTIVLQEGNSQKKSNISEKTKRLNELKLSVVSLKEIQESLKTKIVDSPEKLKNYKEKMKDTVQKLKNARQEVVEKYEIYGDSVDCLPSCQLEVQLYQKKIQDLSDNREKLASILKESLNLEDQIESDESELKKLKTEENSFKRLMIVKKEKLATAQFKINKKHEDVKQYKRTVIEDCNKVQEKRGAVYERVTTINQEIQKIKLGIQQLKDAAEREKLKSQEIFLNLKTALEKYHDGIEKAAEDSYAKIDEKTAELKRKMFKMST [K115E] |
| decreasing interaction strength | METLSFPRYNVAEIVIHIRNKILTGADGKNLTKNDLYPNPKPEVLHMIYMRALQIVYGIRLEHFYMMPVNSEVMYPHLMEGFLPFSNLVTHLDSFLPICRVNDFETADILCPKAKETSRFLSGIINFIHFREACRETYMEFLWQYKSSADKMQQLNAAHQEALMKLERLDSVPVEEQEEFKQLSDGIQELQQSLNQDFHQKTIVLQEGNSQKKSNISEKTKRLNELKLSVVSLKEIQESLKTKIVDSPEKLKNYKEKMKDTVQKLKNARQEVVEKYEIYGDSVDCLPSCQLEVQLYQKKIQDLSDNREKLASILKESLNLEDQIESDESELKKLKTEENSFKRLMIVKKEKLATAQFKINKKHEDVKQYKRTVIEDCNKVQEKRGAVYERVTTINQEIQKIKLGIQQLKDAAEREKLKSQEIFLNLKTALEKYHDGIEKAAEDSYAKIDEKTAELKRKMFKMST [R116E] |
| decreasing interaction strength | METLSFPRYNVAEIVIHIRNKILTGADGKNLTKNDLYPNPKPEVLHMIYMRALQIVYGIRLEHFYMMPVNSEVMYPHLMEGFLPFSNLVTHLDSFLPICRVNKFETADILCPKAKRTSRFLSGIINFIHFREACRETYMEFLWQYKSSADKMQQLNAAHQEALMKLERLDSVPVEEQEEFKQLSDGIQELQQSLNQDFHQKTIVLQEGNSQKKSNISEKTKRLNELKLSVVSLKEIQESLKTKIVDSPEKLKNYKEKMKDTVQKLKNARQEVVEKYEIYGDSVDCLPSCQLEVQLYQKKIQDLSDNREKLASILKESLNLEDQIESDESELKKLKTEENSFKRLMIVKKEKLATAQFKINKKHEDVKQYKRTVIEDCNKVQEKRGAVYERVTTINQEIQKIKLGIQQLKDAAEREKLKSQEIFLNLKTALEKYHDGIEKAAEDSYAKIDEKTAELKRKMFKMST [D103K] |
| disrupting interaction strength | METLSFPRYNVAEIVIHIRNKILTGADGKNLTKNDLYPNPKPEVLHMIYMRALQIVYGIRLEHFYMMPVNSEVMYPHLMEGFLPFSNLVTHLDSFLPICRVNDFETADILCPKAKRTSRFLSGIIAFIHFREACRETYMEFLWQYKSSADKMQQLNAAHQEALMKLERLDSVPVEEQEEFKQLSDGIQELQQSLNQDFHQKTIVLQEGNSQKKSNISEKTKRLNELKLSVVSLKEIQESLKTKIVDSPEKLKNYKEKMKDTVQKLKNARQEVVEKYEIYGDSVDCLPSCQLEVQLYQKKIQDLSDNREKLASILKESLNLEDQIESDESELKKLKTEENSFKRLMIVKKEKLATAQFKINKKHEDVKQYKRTVIEDCNKVQEKRGAVYERVTTINQEIQKIKLGIQQLKDAAEREKLKSQEIFLNLKTALEKYHDGIEKAAEDSYAKIDEKTAELKRKMFKMST [N126A] |
